Source: paper PMC6498573, “Genomic analyses of aminoacyl tRNA synthetases from human-infecting helminths” (BMC Genomics, 2019)

T1: Onchocerca volvulus prolyl tRNA synthetase (OvPRS) (Onchocerca volvulus, UniProt A0A2K6VID2)
T1 construct: OvPRS construct of 497 amino acids (279–775; 57 kDa), MBP-His tag removed by TEV
T1 sequence (A0A2K6VID2 279-775): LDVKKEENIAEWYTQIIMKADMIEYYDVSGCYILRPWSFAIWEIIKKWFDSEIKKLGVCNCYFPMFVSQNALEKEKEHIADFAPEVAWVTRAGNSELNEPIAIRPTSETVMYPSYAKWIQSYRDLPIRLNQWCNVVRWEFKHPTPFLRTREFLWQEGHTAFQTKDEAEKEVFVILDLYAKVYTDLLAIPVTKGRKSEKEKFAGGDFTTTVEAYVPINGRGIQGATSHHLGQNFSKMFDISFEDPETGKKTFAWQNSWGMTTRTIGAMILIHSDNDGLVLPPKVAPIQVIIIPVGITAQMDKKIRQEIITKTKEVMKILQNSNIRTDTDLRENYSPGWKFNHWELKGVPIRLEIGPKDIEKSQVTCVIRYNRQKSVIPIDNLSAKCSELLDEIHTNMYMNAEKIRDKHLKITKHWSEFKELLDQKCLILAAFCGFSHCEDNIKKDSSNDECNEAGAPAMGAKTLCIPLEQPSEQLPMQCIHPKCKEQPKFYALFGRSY

B1: Onchocerca volvulus prolyl tRNA synthetase (OvPRS) (Onchocerca volvulus) (protein)
chain: T1 sequence (A0A2K6VID2 279-775)
notes: OvPRS construct of 497 amino acids (279–775; 57 kDa), MBP-His tag removed by TEV

How the values were obtained:
[1] = target: T1, Onchocerca volvulus prolyl tRNA synthetase (OvPRS); test: malachite green aminoacylation assay with recombinant purified OvPRS ([…] proline, […] ATP, […] enzyme); type: biochemical
purified protein [2] = substrate: Nc1ncnc2c1ncn2[C@@H]1O[C@H](COP(=O)(O)OP(=O)(O)OP(=O)(O)O)[C@@H](O)[C@H]1O; test: purified protein; type: biochemical, Onchocerca volvulus
purified protein [3] = substrate: O=C(O)[C@@H]1CCCN1; test: purified protein; type: biochemical, Onchocerca volvulus

Row | Molecule | IC50 [1] [nM] | Km (purified protein [2]) [µM] | Km (purified protein [3]) [µM]
1 | O=C(CC1NCCCC1O)Cn1cnc2cc(Br)c(Cl)cc2c1=O (stereo not drawn) [HF, halofuginone] | ~30 |  | 
2 | B1 |  | 18.9 ± 2.2 | 24.17 ± 11
